Test results reported in the DeepSol protein solubility set.

Test: soluble on expression in E. coli; label from the status in PepcDB or PDB records

Soluble on expression in E. coli, not soluble:
MGSDKIHHHHHHMIYDMSGIYLSSLTGIRNNSSSSSNSLDKEAFLRLLLQELEMQDPLEPMETKDMISQLSQLTSLEQITNLTSAVKDFVEAQTSVSPAQLASLIGKYVVVRNNTVNLVGGQSDSIIFNVDEDAHVVVQILDENGKLVRTEDLGTVQVGVHAWQWDGRDDNGISVEDGSYTYRVYKLTSSGLEEIGGMEGGVVEAVQIKDGKGFVLVNGSLYPVDSILEISQEGDA
MGSDKIHHHHHHMKAGISLSLSLALSCSAVAQGQKISVPPVFNIFELVIRQDKNNAYDSLAEKNITASVTGEPGTLAMYSAKKKTNPSVTYMYEIYADSDAYDKHLNSTSYKEFLRNSPDILETSQTRRIDVIPQFLADKKIVQNDSTINNFVIVDVKPELGQAFRHVVLPEMAQSIEREEGVLAMYAAIDKANRNRWYFYEIYASENAYQAHRLTPHFKAYINQTAEMTTYKEAIDIKPGLLMNKGGMRYENE
MGSDKIHHHHHHMKALVEDDLFSKIGLDDVNSGVYDGEWVKPSGKMLTVKSPIDGSEVAKISLATRADYDRLVSRAIEEFKKWRMIPAPKRGLIIREIGDELRKEKKNLGKIVTIEAGKTPSEGEGEIQEMIDISDLALGLSRQLYGLTIASERPYHRMYEQWVPLGPVAVITSFNFPASVWSWNAFIAAVDGDVVIWKPSSKAALTAVAVMKVIERVLKRNNAPNIFFLMVSSGSEGGDWITNDPRIPLVSFTGSVPVGKKISENVAKRLGKSILELGGNNGAIVSDKADIDLALRGVVFGALATAGQRCTTTRRVIVQEKIYDQFLEKLKNAYSTIKVGDPREKGVLVGPLIDEDAVKDYEHAIDLAIKQGGKLIFGGKRITIKGLEGGHYVMPTIIEAKPDMPIVKEETFASILYVMKYRTIEEAIEIHNSVPQGLSSSIFTTDLREEEAFLSPYGSDCGLANVNTSTAGAEIGGAFGGEKDTGGGRESGSDAWKYYMRRQTVTKNWGQTLPLAQDVVFEF
MGSDKIHHHHHHMKCVVCGKNEAVEHGVCSQCLFDRANIENIGNVNIAICPKCGSVRIGKKWYREDYADHLLPLIMDEVKCSDPEAKISGDPKSVYFDESNRNLVLKVNITRDHMDPKVQTVSVPYSVNYISCPTCNKLTGSYFEATIQLRTVSTKYDEILSEVLDSIEKIMEKRRKMDASSFISKIERKPEGVDIYLGKKGDGDLVSSFILDHYFATLIVSKSLAGVKEGRKFFRFTYSLRILDAPEGAIVSVDKRKYILTAIRNRHIDVIDVETEERGRINRNVFFSNDGKIVTKEPQVKNFIVISRTEDESQIMDSQTFKIITIKGRAEGNEIRVFTYRGKYFI
MGSDKIHHHHHHMKEIPGLVKKAQIDKHDLTWLEESEVDDRVQQRRYGTTQAAELAGISVGLLYAAEQDGRLPEPEYRSDTARKVRAGYTINHINHMQRVFNTAPRKPEGSSAAIAGILNLKGGSQKTTTCHLFSQYLAIRGYRCLLLDTDPQGSLSFYFGKRPDDNVHYENTVAPFFLEDDEALVEAGHPEGASRSLHYAIQKTYWDNIDIIPACLQNLNIDLLMPSVMNEANVPMLDRIMKLRNGLLEVGENYDFIIIDGTPSLNLSTLNVVSACDVCFVPTPAAMLDFASTLQFAGLVAETAEMYKQEKMYPNIPDMRYFITKYSGSSYAHFMGQIIRRVFTVERGDVLSTEAHASDEIGKANTSTYSIYEKNPAESDNRKRLKKTIEMFDRLFEEMHDAVWETCFEDALRSSHLDKIDEIMSSADLARDDLKRANRLSDKEA
MGSDKIHHHHHHMKEIRIILMGTGNVGLNVLRIIDASNRRRSAFSIKVVGVSDSRSYASGRNLDISSIISNKEKTGRISDRAFSGPEDLMGEAADLLVDCTPASRDGVREYSLYRMAFESGMNVVTANKSGLANKWHDIMDSANQNSKYIRYEATVAGGVPLFSVLDYSILPSKVKRFRGIVSSTINYVIRNMANGRSLRDVVDDAIKKGIAESNPQDDLNGLDAARKSVILVNHIFGTEYTLNDVEYSGVDERSYNANDRLVTEVYVDDRRPVAVSRIISLNKDDFLMSIGMDGLGYQIETDSNGTVNVSDIYDGPYETAGAVVNDILLLSKVQK
MGSDKIHHHHHHMKETDNLLRENSHDRDISEIVATITALDHPSPSLLRFTAFVPGSANNPVWAEANVAIRLYLSEEFDDATRVYTVRSFDAATESIVVDVVQHHHESPMMRWSDTVKINDTLVLTGPRPHFVIPEGEQAALFLDDTAIPALAAILDQWPTDLRGKGWVVTDDPAAFDELPSIDGLELNLLAPGSDPTVQPLAQQAYDLENPETYVVWAAGERDEIKSIRRHFRKQVGLEKDAVAVFGYWKYNTTNTQIDAVRKENYMKMLSEGLQLENFDDLSLEI
MGSDKIHHHHHHMKFCIIGYPVRHSISPRLYNEYFKRAGMNHSYGMEEIPPESFDTEIRRILEEYDGFNATIPHKERVMRYVEPSEDAQRIKAVNCVFRGKGYNTDWVGVVKSLEGVEVKEPVVVVGAGGAARAVIYALLQMGVKDIWVVNRTIERAKALDFPVKIFSLDQLDEVVKKAKSLFNTTSVGMKGEELPVSDDSLKNLSLVYDVIYFDTPLVVKARKLGVKHIIKGNLMFYYQAMENLKIWGIYDEEVFKEVFGEVLK
MGSDKIHHHHHHMKFIVTPDIFEKLPDMYVGVVVAKGIDNSKNYPEIDRLLNRYMKYSQQKFDGINVKQNDEIIPYREAFRKIGINPNRYPCSAEALFKRLSKGKNLPHINPLVNLNNAISLKYTVLMGTHSLDGVQDDIIMRLTKSGDNFVPLGKDEVEEPDEGEVVYAVGSDVCIRRWTWRQSEHSKITDQTHDVFFPIDGFVDVNRDAVDKAREDLVGKSKEIFGVETQVGYVDKNHPEFEWE
MGSDKIHHHHHHMKGIEIVNYGGPEVAKVRTFSSPVRRSGEVMIQVVASSINPVDIKYMTPETIQKIPSFPAILGWDIAGIIIEADKNSNFSAGERVVAFHPQGSWQQLVTASENQVVKLPDNIDFISGGSIPLAASTALQALRRLRLEPGERLLVTGAAGSVGYYALQFALKMGVKASGLVRNKNQKMSINLLDTEIYTNDDPIPEFDAVFDTAGVLNRIDVIHKGGRLVTVSDEQIDPQVLKHTSFAEHNYVRVNKEDLEEIVHLVSEAKIETRVAKIYSFNNVQEALAQAIKSGNNGKVMLIF
MGSDKIHHHHHHMKIAISGKGGVGKTTLAATLAYLFARDGYRVTAIDCDADINLPSALGVKEKPKPLSELHEIIEKRVVGPMGTYKLNPKVDDVFEEYSVYNEDGVRVLVLGTIEKGGEGCFCPENAFLRAILRHAIFKREDVLILDMEAGIEHLGRGTARGVDLLIAVVEPGTRAVETLERIEKLGRDIGIERIAVVVNKFIESERARELISGIKYPILGVIHYDQCFVRADLENVPPYTVCDLKPFEEIKRRIEEFVQ
MGSDKIHHHHHHMKIDTLGVQAFVAIADGGSFRQAADTLHVTQTAITQRLRKLESFLGVALVERTTRRTTLTEIGRRFLPQARRLLNELSDALTEIRETGLSQRGDVTIACVPTVGVQYLPRILRAFSGHRPHDRVKILDHASASVLQAVLRREAEFGISIAGDQHPELVSVPLTHDPYVLVCRDDHPLAKRRRIRWAALQPHPLIFAGEVSGNRGLLDGALKTSGVSLHSFYEVQRSSTALGLVAEGLGAAVVPKLAVQKNAYPMIRTIELVEPSVSRTLVLVKRKAAQLSPAAQALYDMIVERATPGR
MGSDKIHHHHHHMKILAFGEVLLRMTVPEHLMLTQTDELRMSTVGTGVNLLSSLTHFGYRTRLLSRLPDNALGQRAAGELRRYGIQDDYVTFGGQHMGAYFVELGYGSRPERVTYQDRLSSAFCQQPPDDQEIAAALVGCQFVHICGITLSLTAPVRQAALRLAQQAHANGQRVCFDFNYRQQLNTGVAHETLKARYQEILPYVDIVFGSKRDLTALLDYPDDEDRTQSANRESEAALYEQFVRDYHIDYFAGSYRYQIGQQKWFAGFSYQHQQLVVGKARPLMILDRIGSGDAFASGIITALIEGWSLQKTTDFAIATAILAQATVNDAPEFTKEMVLADMASDGQLELIR
MGSDKIHHHHHHMKILFGPVSSRRFGRSLGIDLSPSKKQCNFDCVYCELDPKKAQEKQDEIISIDKIISEVKAMLEKNVEFDFLTLTANGEPSLYPYLNELILSLRSIAKDKKLLILSNGTAVLDEDKFNALLKLDVVKFSLDSAVAKTFYRIDRALKNIDLEKMIEKMADFRARFNGDLIMEILVVKDLNDNEEEFEALNQALKKIMPLRVDLSTIDRPPAYAVKKVSEEKLLELSKLIDSTPVLLAKRHYEGEKLSFNEEELLKMLHLRSQSEIDIEVKFDEQSKTLLNQLIKEKKVKILDLAGVKFYKV
MGSDKIHHHHHHMKILFLSHLDMNLYLFRRPIMEALRKEGHEVIAMCPKGEYFDRFKELGIKAISYEISRESLNPFKELKTLLSIAQKLSELKPDILHTFMLKPNIYGTLASKIASIPYVICSVTGLGSFYIEESFKSRAIRYLIETLSRIVFKIAKKVVFQNEDDRQLFIQKGLVESSKTHLIKGSGINTKLFDPALISPSTLVRYRQELGLEKKHVVLMVARAIAHKGVREYYEAARLLGAFTSDSHLAFLFVGDTDEGNPSCVSSKELYSPHVLWLGHREDILELMALCDIFVLPSYREGIPRTLLEASSLAKPMVTSLAVGCKEVVKEGENGFLVPVGDTKALAQKIHYLVQNPALRLSMGEKARQIAQKEFDVSIIVKAHLELYKEVRGDLQKTL
MGSDKIHHHHHHMKIRVDIIGLKGGVGKTTIALNTALYLSKRYKVLYIDKDLLSMGSLILGFNGLGFNKAIVEGLGNEQYEYKVNNNLTLFKLYSDPVNERELQHKVKGMGEKAERAYVDVVSKGYDVIIVDYGRIFRTNDPLVYDEYEMFKKNFPDYTIAAAGITDAIRNDVTDVVKYFLDTINRIKAKPLAFVINMVPQIGDIQKEINQIVREISEVVKCDILTIPFNEKLVQYANMGEVEEMQKVGKLIERILSNG
MGSDKIHHHHHHMKITIYSKDLYTYGAMLVGGILKETHKHNIKLIKDIKNKKLFLKSDIVILSLYSTLNIIDPVIKDTVDYLKSKNIKIYVAGPVSAYPEIILNELNVDGVILGEGELTTPEIINGSKDGLAYFENGEMIVNKPKSKPDLDFSKIYVPKDIAAQNVRGANVYIETHRGCLGHCTFCQVPEFFGRDIRSKPIELIIEEVNELKKNGVNRIAISGGTGSLYNFKNTVNKNKFIEMIESVSNIIGRQNLSVPDMRVDYVDEEVLNAIKNYSIGWVFYGIESGSDKLLNSMKKGTNSKKNLKAIELAKDCGVKVAGSFIVGHPKEKEVDFLMTKDFIVDAELDDVFVSAAEPIPKTELCTEVLNTKMDENPTFISHNGPYRRYGLKENEARAYDLMLHSEMWKSTPRVITTNLSKVYLDEAKMQGSDIRKATELIFKYRDFLI
MGSDKIHHHHHHMKITLHGVAETLLITLYIRAKDAMAKHPILNDQKSLAIVEQIEYDFDKFDNSEASFYATLARIRVMDREIKKFIRENPNSQILSIGCGLDTRFERVDNGQIRWYNLDLPEVMEIRKLFFEEHERVTNIAKSALDETWTREVNPQNAPFLIVSEGVLMFLKEDDVETFLHILTNSFSQFMAQFDLCHKEMINKGKQHDTVKYMDTEFQFGITDGHEIVDLDPKLKQINLINFTDEMSKFELGTLRSLLPTIRKFNNCLGVYEYKASEKK
MGSDKIHHHHHHMKITTVGLDIAKSVFHFVGVNKAGKLVKKKMIKRKDLLHFLAQIEPCLVVMEACGGANYWAREFEKVGHQVKLIAPQYVVPYRQGNKNDYNDALAIAEAAQRPNMRFVQPKPAEQQDIQMLHRMRERLSKQSTALVNQVRGMLAEYGIVITKGKASFRSKLPDILENADNELTAKGRSIFYQLYEEFNGIEERLKRCDNQVQQETKNNHVCQRLESVPGIGPVTATAFYAAVGEGKDFTNGRHFSAWCGLVPKQHSSGGKDNLLGISKRGNAYLRTLFIHGARAVLYHSDGKGDRFSRWAIALAERRGFNRACVAVANKLARIAWVIAAREDEYRMAV
